Measured values published in patent US20130288305A1 (AVEO PHARMACEUTICALS, published 2013).

Assays:
[1] = target: T1, recombinant human FGFR2 beta (IIIb)/Fc in which the Fc region was removed enzymatically (human, UniProt P21802-3 152-378, limits assumed); test: SPR (Biacore T100), antibody captured on anti-mouse IgG, FGFR protein as analyte, 37 C
T1 construct: also called rhFGFR2β-IIIb-cleaved; monomeric recombinant human FGFR2 beta IIIb
Description: (§1) Rabbit anti-mouse IgGs (GE Healthcare) were immobilized on carboxymethylated dextran CM4 sensor chips (GE Healthcare) by amine coupling, using a standard coupling protocol, according to the vendor's instructions (GE Healthcare). The analyses were performed at 25° C. and 37° C., using PBS containing 0.05% surfactant P20 (GE Healthcare) as running buffer.
(§2) The antibodies were captured in individual flow cells at a flow rate of 10 μl/min. Injection time was varied for each antibody to yield an Rmax between 30 and 60 RU. […] The dissociation phase was monitored for up to 900 seconds. The surface was then regenerated with two 60-second injections of 10 mM Glycine-HCl (pH 1.7), at a flow rate of 60 μl/minute. The FGFR protein concentration range tested was 50 to 3.125 nM (two-fold dilutions).
(§3) Kinetic parameters were determined using the kinetic function of the BlAevalutation software (GE Healthcare) with double reference subtraction. Kinetic parameters for each antibody, kₐ (association rate constant), kd (dissociation rate constant) and KD (equilibrium dissociation constant) were determined.

[2] = target: T2, recombinant human FGFR2 beta (IIIb)/Fc Chimera (human, UniProt P21802-3 152-378); test: as above
T2 construct: Bought from R&D Systems; the IIIb isoform applies; also called rhFGFR2β-IIIb-Fc; human FGFR2-IIIb; Fc part of the bought chimera not given
T2 sequence (P21802 other isoform, or with tags, fused parts or gaps mutant): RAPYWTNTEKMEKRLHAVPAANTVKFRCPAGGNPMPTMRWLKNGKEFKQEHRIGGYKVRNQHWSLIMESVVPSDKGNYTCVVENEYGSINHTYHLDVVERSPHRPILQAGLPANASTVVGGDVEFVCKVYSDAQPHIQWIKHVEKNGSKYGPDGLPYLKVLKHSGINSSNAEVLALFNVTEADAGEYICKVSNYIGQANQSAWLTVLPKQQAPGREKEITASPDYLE
Description: as §1, §2, §3

[3] = target: T1, recombinant human FGFR2 beta (IIIb)/Fc …; test: SPR (Biacore T100), antibody captured on anti-mouse IgG, FGFR protein as analyte, 25 C
Description: as §1, §2, §3

[4] = target: T2, recombinant human FGFR2 beta (IIIb)/Fc …; test: as above
Description: as §1, §2, §3

[5] = target: T3, recombinant human FGFR1 beta (IIIb)/Fc Chimera (human, UniProt P11362-19 120-376); test: as above
T3 construct: Treated as one reagent; also called rhFGFR1β-IIIc-Fc; rhFGFR1β-IIIb-Fc; Fc part of the bought chimera not given
T3 sequence (looked up): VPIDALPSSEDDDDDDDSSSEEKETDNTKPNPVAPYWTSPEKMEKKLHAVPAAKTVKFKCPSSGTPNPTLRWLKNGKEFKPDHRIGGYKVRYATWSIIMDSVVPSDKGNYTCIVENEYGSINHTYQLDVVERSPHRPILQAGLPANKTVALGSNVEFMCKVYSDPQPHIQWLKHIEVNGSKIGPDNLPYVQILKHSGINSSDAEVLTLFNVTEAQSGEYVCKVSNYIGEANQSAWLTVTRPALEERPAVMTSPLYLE
Description: as §1, §2, §3

[6] = target: T1, recombinant human FGFR2 beta (IIIb)/Fc …; test: SPR (Biacore T100), antibody captured on anti-human IgG Fc, rhFGFR2β-IIIb-cleaved as analyte, 25 C
Description: (§4) Goat anti-human IgG Fc (Jackson ImmunoResearch, Catalog No. 109-005-098) was immobilized on carboxymethylated dextran CM4 sensor chips (Biacore) by amine coupling (Biacore) using a standard coupling protocol according to the vendor's instructions. The analyses were performed at 25° C. and 37° C. using PBS (Invitrogen) containing 0.05% surfactant P20 (Biacore) as running buffer.
(§5) Purified antibodies were captured in individual flow cells at a flow rate of 10 μl/minute. Injection time was varied for each antibody to yield an Rₘₐₓ between 30 and 90 RU. […] The dissociation phase was monitored for up to 900 seconds. The surface was then regenerated with two 60 second injections of glycine pH 2.25 (made from glycine pH 2.0 (Biacore) and pH 2.5 (Biacore)) at 30 μl/minute. Experiments were conducted using concentrations of rhFGFR2β-IIIb-cleaved between 20 and 1.25 nM (a two-fold serial dilution).
Kinetic parameters were determined using the kinetic function of the BlAevaluation software (Biacore) with double reference subtraction. Kinetic parameters for each antibody, kₐ (association rate constant), kd (dissociation rate constant) and KD (equilibrium dissociation constant) were determined.

[7] = target: T1, recombinant human FGFR2 beta (IIIb)/Fc …; test: SPR (Biacore T100), antibody captured on anti-human IgG Fc, rhFGFR2β-IIIb-cleaved as analyte, 37 C
Description: as §4, §5

T1 sequence (P21802 other isoform, or with tags, fused parts or gaps limits assumed): as the sequence (P21802 other isoform, or with tags, fused parts or gaps mutant) above

| Binder | Kd [1] | koff [1] | kon [1] | Kd [2] | Kd [3] | Kd [4] | koff [4] | kon [4] | binding result [5] | Kd [6] | koff [6] | kon [6] | Kd [7] | koff [7] | kon [7] |
| --- | --- | --- | --- | --- | --- | --- | --- | --- | --- | --- | --- | --- | --- | --- | --- |
| antibody 4B9 (antibody, Murine IgG1 kappa from hybridoma clone 4B9; also called GP369; monoclonal antibody 4B9) heavy: EVQLQQSGTVLARPGASVKMSCKTSGYTFTSYWMHWVKQRPGQGLEWIGAIYPGNSDTDYSQKFKGKATLTAVTSATTAYMELSSLTNEDSAVYYCSKFDYWGQGTTLTVSSAKTTPPSVYPLAPGSAAQTNSMVTLGCLVKGYFPEPVTVTWNSGSLSSGVHTFPAVLQSDLYTLSSSVTVPSSTWPSQTVTCNVAHPASSTKVDKKIVPRDCGCKPCICTVPEVSSVFIFPPKPKDVLTITLTPKVTCVVVDISKDDPEVQFSWFVDDVEVHTAQTQPREEQFNSTFRSVSELPIMHQDWLNGKEFKCRVNSAAFPAPIEKTISKTKGRPKAPQVYTIPPPKEQMAKDKVSLTCMITDFFPEDITVEWQWNGQPAENYKNTQPIMDTDGSYFVYSKLNVQKSNWEAGNTFTCSVLHEGLHNHHTEKSLSHSPGK light: QIVLTQSPALMSASPGEKVTMTCSASSSVNYMYWYQQKPRSSPKPWIYLTSNLASGVPARFSGRGSGTSYSLTISSMEAEDAATYYCQQWSSNPYTFGGGTKLEIKRADAAPTVSIFPPSSEQLTSGGASVVCFLNNFYPRDINVKWKIDGSERQNGVLNSWTDQDSKDSTYSMSSTLTLTKDEYERHNSYTCEATHKTSTSPIVKSFNRNEC | 1.2 nM | 0.000223 s⁻¹ | 254000 M⁻¹ s⁻¹ | 2.96 nM | 4.2 nM | 0.61 nM | 4.6e-05 s⁻¹ | 94000 M⁻¹ s⁻¹ | no binding (tested: 50 to 3.125 nM tested) |  |  |  |  |  |  |
| Hu4B9-82 (antibody, Humanized IgG1 kappa) heavy: not shown light: EIVLTQSPATLSLSPGERATLSCRASSSVNYMYWYQQKPGQAPRPWIYLTSNRATGIPARFSGSGSGTDYTLTISSLEPEDFAVYYCQQWSSNPYTFGQGTKLEIKRTVAAPSVFIFPPSDEQLKSGTASVVCLLNNFYPREAKVQWKVDNALQSGNSQESVTEQDSKDSTYSLSSTLTLSKADYEKHKVYACEVTHQGLSSPVTKSFNRGEC |  |  |  |  |  |  |  |  |  | 0.49 nM | 9.4e-05 s⁻¹ | 190000 M⁻¹ s⁻¹ | 0.93 nM | 0.00036 s⁻¹ | 400000 M⁻¹ s⁻¹ |
| Hu4B9-65 (antibody, Humanized IgG1 kappa) heavy: not shown light: EIVLTQSPATLSLSPGERATLSCRASSSVNYMYWYQQKPGQAPRPWIYLTSNRATGVPARFSGSGSGTDYTLTISSLEPEDFAVYYCQQWSSNPYTFGQGTKLEIKRTVAAPSVFIFPPSDEQLKSGTASVVCLLNNFYPREAKVQWKVDNALQSGNSQESVTEQDSKDSTYSLSSTLTLSKADYEKHKVYACEVTHQGLSSPVTKSFNRGEC |  |  |  |  |  |  |  |  |  | 0.26 nM | 6.5e-05 s⁻¹ | 240000 M⁻¹ s⁻¹ | 0.89 nM | 0.00028 s⁻¹ | 370000 M⁻¹ s⁻¹ |
| Hu4B9-83 (antibody, Humanized IgG1 kappa) heavy: not shown light: EIVLTQSPATLSLSPGERATLSCRASSSVNYMYWYQQKPGQAPRPWIYLTSNRATGIPARFSGSGSGTDFTLTISSLEPEDFAVYYCQQWSSNPYTFGQGTKLEIKRTVAAPSVFIFPPSDEQLKSGTASVVCLLNNFYPREAKVQWKVDNALQSGNSQESVTEQDSKDSTYSLSSTLTLSKADYEKHKVYACEVTHQGLSSPVTKSFNRGEC |  |  |  |  |  |  |  |  |  | 0.35 nM | 8.9e-05 s⁻¹ | 260000 M⁻¹ s⁻¹ | 0.92 nM | 0.00029 s⁻¹ | 320000 M⁻¹ s⁻¹ |
